Assay results from patent publication US20090010876A1, “VISFATIN AND USES THEREOF” (THE TRUSTEES OF COLUMBIA UNIVERSITY IN THE CITY OF NEW YORK, priority 2007, published 2009).

Key:
[1] = system: macrophages; assay: ER stress-mediated macrophage apoptosis, Alexa-488 annexin V staining; type: cell-based; details: pre-incubated with visfatin 24 h (FIG. 1A prints 1100 ng/ml, FIG. 1D ±100 ng/ml), then acetyl-LDL + 58035 (FC) 20 h or tunicamycin + fucoidan 24 h
Procedure: FIG. 1. […] FIG. 1A. Macrophages were pre-incubated 1100 ng/ml visfatin (vis) for 24 h and then incubated with 50 μg/ml acetyl-LDL+10 μg/ml 58035 (FC) for 20 h. Apoptosis was assayed by Alexa-488 annexin V staining (green). One representative image per condition was shown. FIG. 1B. The percentage of apoptosis was quantified (mean±SEM, n=8). FIG. 1C. Macrophages incubated in medium (con) or with visfatin (vis) for 24 h. Whole cell lysates were immunoblotted for the insulin receptor β (IRβ), SR-A, CD36 and β-actin. FIG. 1D. Macrophages were pre-incubated ±100 ng/ml visfatin (vis) for 24 h and then incubated with 5 μg/ml tunicamycin +25 μg/ml fucoidan (TN/F) for 24 h. Apoptosis was assayed and quantified as described in FIG. 1A and FIG. 1B.

[2] = system: unfolded protein response (UPR); assay: Immunoblot of UPR markers in ER-stressed macrophages; type: cell-based; details: for distal UPR effectors / distal UPR activation (CHOP, ATF3, XBP-1, ATF4): visfatin 24 h pre-incubation, then FC, 5 μM thapsigargin or 5 μg/ml tunicamycin 5 h, immunoblot
Procedure: FIG. 2. […] FIG. 2A. Macrophages were preincubated 1100 ng/ml visfatin (vis) for 24 h and then incubated with FC, 5 μM thapsigargin (TG), or 5 μg/ml tunicamycin (TN) for 5 h. Whole cell lysates were immunoblotted for CHOP, ATF3, and β-actin. FIG. 2B. Macrophages were pre-incubated ±100 ng/ml visfatin for 24 h and then incubated with 5 μg/ml TN for 5 h. The nuclear extracts were immunoblotted for XBP-1, ATF4, and nucleophosmin (loading control). FIG. 2C. Nuclei-free cell extracts from the above experiment were immunoblotted with antibodies against PERK, IRE1α, phospho-eIf2α, and β-actin.

[3] = system: ATF4; assay: ATF4 mRNA by RT-QPCR in FC-loaded macrophages; type: cell-based; details: visfatin 24 h pre-incubation, then acetyl-LDL + 58035 (FC); normalized with 36B4
Procedure: (§1) FIG. 3. […] FIG. 3A. Macrophages were preincubated ±1100 ng/ml visfatin (v) for 24 h and then incubated with 50 μg/ml acetyl-LDL+10 μg/ml 58035 (FC) for indicated times. Total RNA was extracted and subjected to RT-QPCR. The mRNA level of ATF4 was normalized with a control gene 36B4. FIG. 3B. Macrophages were pre-incubated for 24 h±100 ng/ml visfatin (vis) and then incubated for 5 h+5 μg/ml tunicamycin (TN). The cells were pulsed with [35S]methionine/cysteine in methionine-free medium for 15 min and then lysed in RIPA buffer. ATF4 was immunoprecipitated using a rabbit antibody immobilized to protein A/G beads. A normal rabbit IgG served as control. The immunoprecipitate was subjected to SDS-PAGE and autoradiography.

[4] = system: ATF4; assay: ATF4 protein synthesis, [35S]methionine/cysteine pulse and immunoprecipitation; type: cell-based; details: ±100 ng/ml visfatin 24 h, then 5 μg/ml tunicamycin 5 h, 15 min pulse
Procedure: as §1

[5] = system: insulin receptor; assay: CHOP immunoblot in macrophages from insulin receptor deficient and wild type mice; type: cell-based; details: IR−/− vs wt macrophages, ±100 ng/ml visfatin 24 h, then 5 μg/ml tunicamycin 5 h
Text: FIG. 4. […] Whole cell lysates were immunoblotted for CHOP and β-actin.

[6] = system: macrophages in mouse peritoneal cavity; assay: Acute UPR induction in mouse peritoneal macrophages in vivo, CHOP immunoblot; design: species or system Male C57/B6 mice; details: i.v. 5 mg recombinant visfatin, 24 h later i.p. 25 μg tunicamycin, harvest 12 h after, CHOP normalized against phospho-eIf2α
Procedure: FIG. 5. […] FIG. 5A. Male C57/B6 mice were subjected to intra-peritoneal (i.p.) injection of 1 ml of 4% thioglycolate to elicit peritoneal macrophages. Three days later, the mice were injected i.v. with 0.1 ml sterile saline ±5 mg recombinant visfatin (vis). Twenty-four hours later, these mice were injected i.p. with 0.5 ml 150 mM dextrose ±25 μg tunicamycin (TN). Twelve hours after TN injection, macrophages were harvested by peritoneal lavage and immediately lysed in RIPA buffer. The lysates were subjected to SDS-PAGE and immunoblotting for CHOP, phospho-eIf2α and β-actin. FIG. 5B. The intensity of CHOP bands were quantified and normalized against that of phospho-eIf2α.

[7] = system: atherosclerotic plaque formation; assay: Atherosclerotic plaque formation in susceptible mice on high cholesterol diet; type: in vivo; details: vs diluent alone, mice with reduced ApoE1 expression
Text: Recombinant visfatin polypeptides will be injected into mice susceptible to atherosclerotic plaque formation. In accordance with this prophetic example, the genome of these mice can comprise a transgenic modification wherein ApoE1 gene expression is reduced to levels that promote atherosclerosis. The mice will be continuously fed a high cholesterol diet to promote the formation of atherosclerotic lesions. One group of mice will be administered a pharmaceutically effective amount of visfatin polypeptide in a suitable diluent and another group of mice will be administered diluent alone and the incidence of atherosclerotic plaque formation will be compared between the two groups. The amount of visfatin polypeptide, the length of administration and the frequency of administration are variables that can readily be determine by an individual skilled in the art.

[8] = system: macrophages in atherosclerotic plaques; assay: Macrophage death in atherosclerotic plaques of susceptible mice; type: in vivo; details: vs diluent alone; mice with reduced ApoE1 expression, high cholesterol diet
Text: Recombinant visfatin polypeptides will be injected into mice susceptible to atherosclerotic plaque formation. In accordance with this prophetic example, the genome of these mice can comprise a transgenic modification wherein ApoE1 gene expression is reduced to levels that promote atherosclerosis. The mice will be continuously fed a high cholesterol diet to promote the formation of atherosclerotic lesions. One group of mice will be administered a pharmaceutically effective amount of visfatin polypeptide in a suitable diluent and another group of mice will be administered diluent alone and the amount of macrophage death in atherosclerotic plaques will be compared between the two groups. The amount of visfatin polypeptide, the length of administration and the frequency of administration are variables that can readily be determine by an individual skilled in the art.

[9] = system: ER stress related disease; assay: ER-stress related disease in susceptible mice; type: in vivo; details: vs diluent alone; mice susceptible to an ER-stress related disease

B1: visfatin: adipokine protein, having a molecular weight of about 52,000 daltons; polypeptide having SEQ ID NO:1 (protein, listed as Homo sapiens)
chain: MNPAAEAEFNILLATDSYKVTHYKQYPPNTSKVYSYFECREKKTENSKLRKVKYEETVFYGLQYILNKYLKGKVVTKEKIQEAKDVYKEHFQDDVFNEKGWNYILEKYDGHLPIEIKAVPEGFVIPRGNVLFTVENTDPECYWLTNWIETILVQSWYPITVATNSREQKKILAKYLLETSGNLDGLEYKLHDFGYRGVSSQETAGIGASAHLVNFKGTDTVAGLALIKKYYGTKDPVPGYSVPAAEHSTITAWGKDHEKDAFEHIVTQFSSVPVSVVSDSYDIYNACEKIWGEDLRHLIVSRSTQAPLIIRPDSGNPLDTVLKVLEILGKKFPVTENSKGYKLLPPYLRVIQGDGVDINTLQEVCVLY
With B1 the “ER-stress mediated apoptosis of macrophages” value [1] was “protects macrophages from ER-stress mediated apoptosis”, the “ER-stress mediated apoptosis of macrophages” value ([1]; listed as Visfatin) was “protects macrophages from ER stress-mediated apoptosis” and the “distal UPR effectors / distal UPR activation (CHOP, ATF3, XBP-1, ATF4)” value [2] was “directly targets distal UPR effectors”. For the same molecule, the “distal UPR effectors / distal UPR activation (CHOP, ATF3, XBP-1, ATF4)” value ([2]; listed as Visfatin) was “suppresses the distal UPR activation”, the “upstream UPR activators (PERK, IRE1α, phospho-eIf2α)” value ([2]; ±100 ng/ml visfatin 24 h, then 5 μg/ml tunicamycin 5 h, nuclei-free cell extracts) was “without inhibiting upstream UPR activators” and the “mRNA level of ATF4” value [3] was “intact”. For the same molecule, the “translation of ATF4 / ATF4 protein synthesis” value [4] was “halted”, the “translation of ATF4 / ATF4 protein synthesis” value ([4]; listed as Visfatin) was “suppresses ATF4 protein synthesis” and the “UPR-suppressing effect, dependence on the insulin receptor” value [5] was “independent of the insulin receptor”. For the same molecule, the “acute UPR induction in macrophages of the mouse peritoneal cavity” value ([6]; listed as Recombinant visfatin) was “suppresses the acute UPR induction of macrophages in mouse peritoneal cavity”, the “acute UPR induction in macrophages of the mouse peritoneal cavity” value ([6]; listed as recombinant visfatin) was “suppress acute UPR induction in macrophages of the mouse peritoneal cavity” and the “incidence of atherosclerotic plaque formation” value [7] was “lower incidence of atherosclerotic plaque formation”. For the same molecule, the “amount of macrophage death in atherosclerotic plaques” value [8] was “lower amount of cell death” and the “incidence of the ER stress related disease” value [9] was “lower incidence of the ER stress related disease”.
